Experiment [1] concerns the target T1, FcγRIa extracellular domain with C-terminal His tag (human, UniProt P12314 16-292).
T1 construct: extracellular domain; Expressed in FreeStyle293 cells; analyte in the SPR assay; also called FcgRI; 1a
The experiment is described as follows: SPR (Biacore), relative binding, HeCon Ab = 100.

For experiment [2], the target named is T2, FcγRIIb extracellular domain with C-terminal His tag (human, UniProt P31994 43-217).
T2 construct: extracellular domain; Expressed in FreeStyle293 cells; analyte in the SPR assay; also called FcgRIIb; 2b
T2 sequence (looked up): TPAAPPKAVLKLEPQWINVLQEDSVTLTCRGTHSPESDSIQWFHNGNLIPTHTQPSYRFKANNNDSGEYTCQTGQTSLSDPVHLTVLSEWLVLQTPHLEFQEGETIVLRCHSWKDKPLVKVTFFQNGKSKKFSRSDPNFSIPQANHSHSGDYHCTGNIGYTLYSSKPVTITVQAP
The experiment is described as follows: SPR (Biacore), relative binding, HeCon Ab = 100.

T1 sequence (P12314 16-292): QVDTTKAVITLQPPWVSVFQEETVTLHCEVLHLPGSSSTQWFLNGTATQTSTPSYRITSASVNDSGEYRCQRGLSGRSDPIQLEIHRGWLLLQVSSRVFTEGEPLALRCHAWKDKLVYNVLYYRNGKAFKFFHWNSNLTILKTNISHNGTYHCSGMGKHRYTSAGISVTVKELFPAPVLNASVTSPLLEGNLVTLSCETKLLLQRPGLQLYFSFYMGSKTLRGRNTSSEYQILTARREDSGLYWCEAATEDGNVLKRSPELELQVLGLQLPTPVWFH

B1: GpH7-A5/GpH7-B3 variant E269_08L/GpL16-k0 (He Ab) (antibody, human IgG1, kappa)
heavy 1: not shown
heavy 2: not shown
light: DIVMTQSPLSLPVTPGEPASISCQASESLVHSNRNTYLHWYLQKPGQSPQLLIYKVSNRFSGVPDRFSGSGSGTDFTLKISRVEAEDVGVYYCSQNTHVPPTFGQGTKVEIERTVAAPSVFIFPPSDEQLKSGTASVVCLLNNFYPREAKVQWKVDNALQSGNSQESVTEQDSKDSTYSLSSTLTLSKADYEKHKVYACEVTHQGLSSPVTKSFNRGEC
notes: He Ab: mutation in one H chain only
For B1, the He/Con_1a in experiment [1] is 104 % of HeCon Ab (=100). In addition, the He/Con_2b in experiment [2] is 42.9 % of HeCon Ab (=100).

B2: GpH7-A5/GpH7-B3 variant E269_16H/GpL16-k0 (He Ab) (antibody, human IgG1, kappa)
heavy 1: not shown
heavy 2: not shown
light: DIVMTQSPLSLPVTPGEPASISCQASESLVHSNRNTYLHWYLQKPGQSPQLLIYKVSNRFSGVPDRFSGSGSGTDFTLKISRVEAEDVGVYYCSQNTHVPPTFGQGTKVEIERTVAAPSVFIFPPSDEQLKSGTASVVCLLNNFYPREAKVQWKVDNALQSGNSQESVTEQDSKDSTYSLSSTLTLSKADYEKHKVYACEVTHQGLSSPVTKSFNRGEC
notes: as for B1
Consider B2, for which the He/Con_1a in experiment [1] was 106 % of HeCon Ab (=100). Further, the He/Con_2b in experiment [2] was 38.5 % of HeCon Ab (=100).

B3: GpH7-A5/GpH7-B3 variant E269_15Y/GpL16-k0 (He Ab) (antibody, human IgG1, kappa)
heavy 1: not shown
heavy 2: not shown
light: DIVMTQSPLSLPVTPGEPASISCQASESLVHSNRNTYLHWYLQKPGQSPQLLIYKVSNRFSGVPDRFSGSGSGTDFTLKISRVEAEDVGVYYCSQNTHVPPTFGQGTKVEIERTVAAPSVFIFPPSDEQLKSGTASVVCLLNNFYPREAKVQWKVDNALQSGNSQESVTEQDSKDSTYSLSSTLTLSKADYEKHKVYACEVTHQGLSSPVTKSFNRGEC
notes: as for B1
Consider B3, for which the He/Con_1a in experiment [1] was 106 % of HeCon Ab (=100). In addition, the He/Con_2b in experiment [2] is 44.7 % of HeCon Ab (=100).

B4: GpH7-A5/GpH7-B3 variant E269_06M/GpL16-k0 (He Ab) (antibody, human IgG1, kappa)
heavy 1: not shown
heavy 2: not shown
light: DIVMTQSPLSLPVTPGEPASISCQASESLVHSNRNTYLHWYLQKPGQSPQLLIYKVSNRFSGVPDRFSGSGSGTDFTLKISRVEAEDVGVYYCSQNTHVPPTFGQGTKVEIERTVAAPSVFIFPPSDEQLKSGTASVVCLLNNFYPREAKVQWKVDNALQSGNSQESVTEQDSKDSTYSLSSTLTLSKADYEKHKVYACEVTHQGLSSPVTKSFNRGEC
notes: as for B1
Turning to B4, the He/Con_1a in experiment [1] is 104 % of HeCon Ab (=100). Also, the He/Con_2b in experiment [2] is 46.7 % of HeCon Ab (=100).

B5: GpH7-A5/GpH7-B3 variant H268_07I/GpL16-k0 (He Ab) (antibody, human IgG1, kappa)
heavy 1: not shown
heavy 2: not shown
light: DIVMTQSPLSLPVTPGEPASISCQASESLVHSNRNTYLHWYLQKPGQSPQLLIYKVSNRFSGVPDRFSGSGSGTDFTLKISRVEAEDVGVYYCSQNTHVPPTFGQGTKVEIERTVAAPSVFIFPPSDEQLKSGTASVVCLLNNFYPREAKVQWKVDNALQSGNSQESVTEQDSKDSTYSLSSTLTLSKADYEKHKVYACEVTHQGLSSPVTKSFNRGEC
notes: as for B1
For the molecule B5, the He/Con_1a in experiment [1] is 108 % of HeCon Ab (=100). Besides, the He/Con_2b in experiment [2] was 88.9 % of HeCon Ab (=100).

B6: GpH7-A5/GpH7-B3 variant H268_11K/GpL16-k0 (He Ab) (antibody, human IgG1, kappa)
heavy 1: not shown
heavy 2: not shown
light: DIVMTQSPLSLPVTPGEPASISCQASESLVHSNRNTYLHWYLQKPGQSPQLLIYKVSNRFSGVPDRFSGSGSGTDFTLKISRVEAEDVGVYYCSQNTHVPPTFGQGTKVEIERTVAAPSVFIFPPSDEQLKSGTASVVCLLNNFYPREAKVQWKVDNALQSGNSQESVTEQDSKDSTYSLSSTLTLSKADYEKHKVYACEVTHQGLSSPVTKSFNRGEC
notes: as for B1
With B6, in experiment [1], the He/Con_1a was 106 % of HeCon Ab (=100). In addition, in experiment [2], the He/Con_2b was 83 % of HeCon Ab (=100).

B7: GpH7-A5/GpH7-B3 variant E269_05P/GpL16-k0 (He Ab) (antibody, human IgG1, kappa)
heavy 1: not shown
heavy 2: not shown
light: DIVMTQSPLSLPVTPGEPASISCQASESLVHSNRNTYLHWYLQKPGQSPQLLIYKVSNRFSGVPDRFSGSGSGTDFTLKISRVEAEDVGVYYCSQNTHVPPTFGQGTKVEIERTVAAPSVFIFPPSDEQLKSGTASVVCLLNNFYPREAKVQWKVDNALQSGNSQESVTEQDSKDSTYSLSSTLTLSKADYEKHKVYACEVTHQGLSSPVTKSFNRGEC
notes: as for B1
Consider B7, for which the He/Con_1a in experiment [1] is 102 % of HeCon Ab (=100). In experiment [2], the He/Con_2b was 52.6 % of HeCon Ab (=100).

B8: GpH7-A5/GpH7-B3 variant E269_20W/GpL16-k0 (He Ab) (antibody, human IgG1, kappa)
heavy 1: not shown
heavy 2: not shown
light: DIVMTQSPLSLPVTPGEPASISCQASESLVHSNRNTYLHWYLQKPGQSPQLLIYKVSNRFSGVPDRFSGSGSGTDFTLKISRVEAEDVGVYYCSQNTHVPPTFGQGTKVEIERTVAAPSVFIFPPSDEQLKSGTASVVCLLNNFYPREAKVQWKVDNALQSGNSQESVTEQDSKDSTYSLSSTLTLSKADYEKHKVYACEVTHQGLSSPVTKSFNRGEC
notes: as for B1
For B8, the He/Con_1a in experiment [1] was 105 % of HeCon Ab (=100). Moreover, the He/Con_2b in experiment [2] was 42.5 % of HeCon Ab (=100).

B9: GpH7-A5/GpH7-B3 variant H268_08L/GpL16-k0 (He Ab) (antibody, human IgG1, kappa)
heavy 1: not shown
heavy 2: not shown
light: DIVMTQSPLSLPVTPGEPASISCQASESLVHSNRNTYLHWYLQKPGQSPQLLIYKVSNRFSGVPDRFSGSGSGTDFTLKISRVEAEDVGVYYCSQNTHVPPTFGQGTKVEIERTVAAPSVFIFPPSDEQLKSGTASVVCLLNNFYPREAKVQWKVDNALQSGNSQESVTEQDSKDSTYSLSSTLTLSKADYEKHKVYACEVTHQGLSSPVTKSFNRGEC
notes: as for B1
Turning to B9, the He/Con_1a in experiment [1] is 107 % of HeCon Ab (=100). For the same molecule, the He/Con_2b in experiment [2] was 67.8 % of HeCon Ab (=100).

B10: GpH7-A5/GpH7-B3 variant H268_06M/GpL16-k0 (He Ab) (antibody, human IgG1, kappa)
heavy 1: not shown
heavy 2: not shown
light: DIVMTQSPLSLPVTPGEPASISCQASESLVHSNRNTYLHWYLQKPGQSPQLLIYKVSNRFSGVPDRFSGSGSGTDFTLKISRVEAEDVGVYYCSQNTHVPPTFGQGTKVEIERTVAAPSVFIFPPSDEQLKSGTASVVCLLNNFYPREAKVQWKVDNALQSGNSQESVTEQDSKDSTYSLSSTLTLSKADYEKHKVYACEVTHQGLSSPVTKSFNRGEC
notes: as for B1
For the molecule B10, in experiment [1], the He/Con_1a was 105 % of HeCon Ab (=100). In addition, the He/Con_2b in experiment [2] was 65.7 % of HeCon Ab (=100).

The values above are taken from patent US20150344570A1 (published 2015).
